# Laboratory results taken from patent US20210371490A1 (MILTENYI BIOTEC B V, published 2021).
# T1: TSPAN8 (UniProt P19075 1-237, limits assumed)
# T1 sequence (looked up): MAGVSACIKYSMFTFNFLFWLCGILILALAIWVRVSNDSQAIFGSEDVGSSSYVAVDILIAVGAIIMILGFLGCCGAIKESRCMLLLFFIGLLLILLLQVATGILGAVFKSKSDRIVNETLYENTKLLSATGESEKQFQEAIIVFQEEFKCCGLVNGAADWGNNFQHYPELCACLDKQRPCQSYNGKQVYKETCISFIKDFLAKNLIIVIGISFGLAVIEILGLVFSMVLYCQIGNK
# Biological target: T1, TSPAN8
# Assay: cell-based or functional assay
binder,measurement,value
TSPAN8_hl_Sig4 CAR (other) EVKLLESGGGLVQPGGSMRLSCAASGFTFTDFYMNWIRQPAGKAPEWLGFIRNKASGYTTEYNPSVKGRFTISRDNTQNMLYLQMNTLRAEDTATYYCARAHSYYGYDYFDYWGQGVMVTVSSGGGGSGGGGSGGGGSDIQMTQSPASLSASLEEIVTITCQASQDIGNWLSWYQQKPGKSPQLLIYGATSLADGVPSRFSGSRSGTQYSLKISRLQVEDIRIYYCLQAYSAPWTFGGGTKLELKAASYPPVIVEMNSSVEAIEGSHVSLLCGADSNPPPLLTWMRDGTVLREAVAESLLLELEEVTPAEDGVYACLAENAYGQDNRTVGLSVMYAPWKPTVNGTMVAVEGETVSILCSTQSNPDPILTIFKEKQILSTVIYESELQLELPAVSPEDDGEYWCVAENQYGQRATAFNLSVEFAPVLLLESHCAAARDTVQCLCVVKSNPEPSVAFELPSRNVTVNESEREFVYSERSGLVLTSILTLRGQAQAPPRVICTARNLYGAKSLELPFQGAHRLMWAKIGPIYIWAPLAGTCGVLLLSLVITLYCKRGRKKLLYIFKQPFMRPVQTTQEEDGCSCRFPEEEEGGCELRVKFSRSADAPAYQQGQNQLYNELNLGRREEYDVLDKRRGRDPEMGGKPRRKNPQEGLYNELQKDKMAEAYSEIGMKGERRRGKGHDGLYQGLSTATKDTYDALHMQALPPR,"cytokine release after 24 h co-culture with AsPC1 cells (MACSPlex), against the TSPAN8 CD8a CAR T cells",10 fold lower
